Measured values published in IntAct's records for PubMed 22927794.

B1: Long arms of the bivalent protein 1 (Caenorhabditis elegans), Q17604 (parent)
chain: MVSHKKNDRPRPLWILKIHKRLSLFEFKRYATGIGKDDGQDISWVLKGNAKNNVYQVTVETMENCETDECKKVIWVPDELAESTGTMFEDFKEDQPQESVSSISNNEANWGSSVNELDENYEKMQKEETFDPYDSDSDTSEDSDFDEDFEDSDKTMCSGQS

Variants of: B1
Conditions: with glc7b_caeel gsp-2, P48727
Chain of glc7b_caeel gsp-2, P48727 (P48727 whole entry): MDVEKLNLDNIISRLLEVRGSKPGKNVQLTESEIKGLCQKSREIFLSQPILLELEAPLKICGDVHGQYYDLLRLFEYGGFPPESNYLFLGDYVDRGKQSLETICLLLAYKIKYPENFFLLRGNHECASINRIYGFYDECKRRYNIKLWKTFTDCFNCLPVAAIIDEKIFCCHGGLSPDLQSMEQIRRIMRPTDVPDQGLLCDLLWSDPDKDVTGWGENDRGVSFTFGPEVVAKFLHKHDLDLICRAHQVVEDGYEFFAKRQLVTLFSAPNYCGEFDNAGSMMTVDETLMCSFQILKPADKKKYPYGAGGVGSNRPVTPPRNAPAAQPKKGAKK

Variant	effect of a mutation on the interaction
MVSHKKNDRPRPLWILKIHKRLSLFEFKRYATGIGKDDGQDISWVLKGNAKNNVYQVTVETMENCETDECKKAIAVPDELAESTGTMFEDFKEDQPQESVSSISNNEANWGSSVNELDENYEKMQKEETFDPYDSDSDTSEDSDFDEDFEDSDKTMCSGQS	increasing interaction strength

Variants of: B1
Conditions: with glc7a_caeel gsp-1, Q27497
Chain of glc7a_caeel gsp-1, Q27497 (Q27497 whole entry): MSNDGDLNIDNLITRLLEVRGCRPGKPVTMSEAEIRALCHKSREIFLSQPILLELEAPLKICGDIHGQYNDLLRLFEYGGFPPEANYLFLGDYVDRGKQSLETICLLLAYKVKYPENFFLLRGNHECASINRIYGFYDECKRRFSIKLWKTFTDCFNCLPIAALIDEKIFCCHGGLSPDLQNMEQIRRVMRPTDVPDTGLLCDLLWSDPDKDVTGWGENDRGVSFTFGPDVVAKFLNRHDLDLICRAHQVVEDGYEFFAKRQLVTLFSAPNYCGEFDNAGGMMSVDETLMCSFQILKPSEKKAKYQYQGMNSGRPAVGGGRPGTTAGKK

Variant	effect of a mutation on the interaction
MVSHKKNDRPRPLWILKIHKRLSLFEFKRYATGIGKDDGQDISWVLKGNAKNNVYQVTVETMENCETDECKKAIAVPDELAESTGTMFEDFKEDQPQESVSSISNNEANWGSSVNELDENYEKMQKEETFDPYDSDSDTSEDSDFDEDFEDSDKTMCSGQS	decreasing interaction strength
